According to article PMC4634331, “Single-molecule spectroscopy exposes hidden states in an enzymatic electron relay” (Nature Communications, 2015):

Substrate: OC(CS)C(O)CS
Assay: oxygen consumption, Clark-type oxygen electrode
Type: biochemical, Trypanosoma brucei
Details: O2 as electron acceptor, air-saturated, 25 °C, 50 nM enzyme, Michaelis-Menten fit of data up to 1 mM DTT (turnover rises beyond the fit above 1 mM)

B1: TbQSOX (Trypanosoma brucei brucei TREU927) (protein)
chain: SVAQVATGSPRPGLFHLDSSVVDLSGDDFSRVHRVAPLCPWIVLFYNDGCGACRRYASTFSKFAGGLKVEHGKDALQIATAAAVNCASEVDLCRKYDINFVPRLFFFYPRDSCRSNEECGTSSLEHVAFENSHLEVDELESEVRRLVNKHMVVDDSLKERCIDMHFKLYTSKEELVKRSVSSTDESGRFVETTELYATDIAGAFFSAMHYDVSLVGTEPRERLTALEDFVLLVKDSLPSIGADGVVSALESITAERPFTVASWQDAVVKSGIPFDGSPRNVRWRTCRGSSPQYRGFPCGMWLLLHALTVNTPADRNVLEVIQNYIRYFFSCKECRDHFIQFNFSPNEDPVLQLWRAHNNVNARLANVKDGADPLVPKRQFPTLEACTECYDGAGNFIEAHVTGFLKQRYLWDPKAVGLMESNDDLNEVDPASKDANVGRNVESSGKGKGDGGARGNSKEVRSDHAG
  Km: 65 ± 10 µM
